These results are taken from PMC4834876 (Journal of molecular biology, 2016).

For the assay, the target named is F-actin (filamentous actin) from rabbit muscle (rabbit, UniProt P68135 1-377). Briefly: co-sedimentation.

B1: EB1_(248), activated fragment of EB1 lacking the auto-inhibitory acidic tail (domain or fragment)
chain: MAVNVYSTSVTSDNLSRHDMLAWINESLQLNLTKIEQLCSGAAYCQFMDMLFPGSIALKKVKFQAKLEHEYIQNFKILQAGFKRMGVDKIIPVDKLVKGKFQDNFEFVQWFKKFFDANYDGKDYDPVAARQGQETAVAPSLVAPALNKPKKPLTSSSAAPQRPISTQRTAAAPKAGPGVVRKNPGVGNGDDEAAELMQQVNVLKLTVEDLEKERDFYFGKLRNIELICQENEGENDPVLQRIVDILYA
The molecule B1 displayed an equilibrium dissociation constant (Kd) of approximately 7 µM.

Broadly, the Kd is the equilibrium constant for the complex coming apart. A lower Kd goes with tighter binding.
